Laboratory results: article PMC7423924, “A fluorogenic cyclic peptide for imaging and quantification of drug-induced apoptosis” (Nature Communications, 2020)
Values joined by “and” are separate entries in the source; they are usually repeats but may differ in a detail not shown here. Equal values may be shown once.

Legend:
BL-2 cells (lymphoid) = assay: Flow cytometry staining before and after induction of apoptosis, BL-2; type: cell-based, human; conditions: single replicates, listed as Ann V
Experimental: (§1) Fig. 2 Apo-15 binds to apoptotic cells of different origin in multiple environments. a Representative fluorescence confocal microscopy images (from three independent experiments) human apoptotic (yellow arrows) and viable (white arrows) cells from different lineages: BL-2 (lymphoid), neutrophils (myeloid), and primary airway epithelial cells (epithelial). Cells were incubated with Apo-15 (100 nM, green), AF647-Annexin V (5 nM, red), and Hoechst 33342 (7 μM, blue) for 10 min and imaged under a fluorescence confocal microscope (λexc.: 405, 488, 633 nm: λem.: 450, 525, 670 nm). Scale bars: 10 µm. b Divalent cation-independent binding of Apo-15 to apoptotic cells of different origin (top plots: lymphoid cells, bottom plots: myeloid cells). Mixtures of apoptotic (highlighted in green dots) and viable cells (highlighted in black dots) were stained with AF647-Annexin V (25 nM) and Apo-15 (100 nM) in the presence of 2 mM CaCl2 (left) or 2.5 mM EDTA (right). Representative histograms showing Apo-15 binding (x-axis) vs AF647-Annexin V binding (y-axis) acquired on 5L LSR flow cytometer (n = 5). c Cells were sorted on their Apo-15 positivity (green populations in panel b) or negativity (black populations in panel b). Gating strategy in Supplementary Fig. 7. Morphological analysis (four independent images from two independent experiments) of cytocentrifuge preparations of Apo-15-positive and Apo-15-negative cells under brightfield microscopy (scale bar: 10 µm). d Quantification of fluorescence staining of neutrophils (myeloid, n ≥ 5), BL-2 cells (lymphoid, n ≥ 3) and primary airway epithelial cells (epithelial, n = 5) before and after induction of apoptosis and upon treatment with Apo-15 and AF647-Annexin V. Data acquired on 5 L LSR flow cytometer and presented as mean values ± SEM. P values obtained from two-tailed t tests. Source data (in d) are provided as a Source data file. […]
(§2) All apopeptides were reconstituted at 5 mM in DMSO. […] Fluorescence emission was measured on a 5 L LSR flow cytometer (BD). […]

[1] = tested on: primary airway epithelial cells; assay: Flow cytometry staining before and after induction of apoptosis, epithelial; type: cell-based, human; conditions: single replicates, listed as Ann V
Experimental: as §1, §2

B1: Annexin V: fluorescently-labeled (AF647) annexin V, PS-binding protein (protein, UniProt P08758 2-320, looked up)
Annexin A5: AQVLRGTVTDFPGFDERADAETLRKAMKGLGTDEESILTLLTSRSNAQRQEISAAFKTLFGRDLLDDLKSELTGKFEKLIVALMKPSRLYDAYELKHALKGAGTNEKVLTEIIASRTPEELRAIKQVYEEEYGSSLEDDVVGDTSGYYQRMLVVLLQANRDPDAGIDEAQVEQDAQALFQAGELKWGTDEEKFITIFGTRSVSHLRKVFDKYMTISGFQIEETIDRETSGNLEQLLLAVVKSIRSIPAYLAETLYYAMKGAGTDDHTLIRVMVSRSEIDLFNIRKEFRKNFATSLYSMIKGDTSGDYKKALLLLCGEDD
modifications: AF647 label
BL-2 cells (lymphoid); BL-2 0h UV
  Stained cells (flow cytometry): 25.4% and 28.9% and 10.3%
BL-2 cells (lymphoid); BL-2 3h UV, EDTA
  Stained cells (flow cytometry): 1.4% and 1.1% and 2.6%
BL-2 cells (lymphoid); BL-2 3h UV
  Stained cells (flow cytometry): 86.9% and 45.3% and 46.5% and 34.9%
[1]; epithelial cells untreated (UNT)
  Stained cells (flow cytometry): 7.0% and 6.2% and 7.1% and 5.9% and 13.0%
[1]; epithelial cells, staurosporine (ST, 1 µM 6 h)
  Stained cells (flow cytometry): 14.1% and 17.9% and 25.5% and 29.1% and 22.0%
[1]; epithelial cells, staurosporine, EDTA
  Stained cells (flow cytometry): 0.024% and 0.1% and 0.37% and 3.0% and 2.0%
